From patent US20050048605A1 (Takeda / Millennium, published 2005)
Numbering of substitutions follows the chain as printed. Blank lines part the entries; values can stand above or below the binder they belong to. Where no end group is shown, it is not given here. [ ]: non-standard residue; d: D form. The star is where a group is joined. Nle = CCCC[C@H](N)C(=O)O; 125I = [125I]*

Key:
[1] = target: T1, human-derived G protein-coupled receptor protein TGR23-2 (human TGR23-2) (human, UniProt Q6W5P4 1-371); test: competition with [Nle10,125I-Tyr15] human TGR23-2 ligand (1-20); membrane fraction of TGR23-2 expressing CHO cells at 1 ug/ml; filter assay
T1 construct: Expressed in CHO dhfr- cells (pAKKO-TGR23-2)
T1 chain: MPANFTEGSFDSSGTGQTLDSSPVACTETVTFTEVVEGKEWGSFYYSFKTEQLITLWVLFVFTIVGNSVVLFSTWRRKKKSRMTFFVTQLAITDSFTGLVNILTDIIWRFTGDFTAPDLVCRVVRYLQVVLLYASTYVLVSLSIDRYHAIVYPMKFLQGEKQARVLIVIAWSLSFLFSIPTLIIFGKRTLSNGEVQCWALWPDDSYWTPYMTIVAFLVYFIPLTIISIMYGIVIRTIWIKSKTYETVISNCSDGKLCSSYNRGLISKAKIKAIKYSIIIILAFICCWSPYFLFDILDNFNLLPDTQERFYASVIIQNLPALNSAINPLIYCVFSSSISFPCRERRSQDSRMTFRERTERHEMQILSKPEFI
Experimental: Cell membrane fraction prepared from TGR23-1 expressing CHO cells and TGR23-2 expressing CHO cells was diluted to various concentration with assay buffer (20 mM Tris-HCl, 5 mM EDTA, 0.1% BSA, 0.5 mM PMSF, 1 μg/ml Pepstatin, 4 μg/ml E-64, 20 μg/ml Leupeptin, pH7.4), and 200 μl each of the diluent was dispensed into polypropilene test tube (Falcon 2053). In order to determine an amount of maximum binding, 2 μl of DMSO and 2 μl of 10 nM [Nle¹⁰, ¹²⁵I-Tyr¹⁵] human TGR23-2 ligand (1-20) were added to the membrane fraction solution. Further, in order to determine a non-specific binding, 2 μl of 1 μM [Nle¹⁰, Tyr¹⁵] human TGR23-2 ligand (1-20)/DMSO solution was added to the membrane fraction solution. The reaction was done at 25° C. for 90 minutes, and the reaction mixture was filtered by suction filtration using Whatman glassfilter (GF-F) treated with polyethyleneimine. After filtration, a radioactivity remaining on the filter was counted using γ-counter, and an amount of specific binding was estimated by subtracting an amount of non-specific binding from an amount of maximum binding. When the concentration of membrane fraction was changed, a specific binding of [Nle¹⁰, ¹²⁵I-Tyr¹⁵] human TGR23-2 ligand (1-20) was perceived depending on the concentration of membrane fraction. An inhibition of binding activity of the test specimen to TGR23-1 receptor or TGR23-2 receptor (inhibition rate (%)) was represented by a ratio of the value to the specific binding (SB), wherein the value is calculated by subtracting the radioactivity remaining on the filter (X) in the case of adding the test sample and [Nle¹⁰, ¹²⁵I-Tyr¹⁵] human TGR3-2 ligand (1-20) from the total binding (TB) ((TB−X)/SB×100 (%)).

[2] = target: T2, rat-derived G protein-coupled receptor protein TGR23-5 (rat TGR23-5) (rat, UniProt P0C0L6 1-372); test: saturation binding with Scatchard analysis on the membrane fraction of rat TGR23-5 expressing CHO cells; row head 'Binding Constant'; text gives dissociation constant 125±8.36 (pM)
T2 construct: Rat TGR23-1 with Ala inserted just before Glu at the 160th position; Expressed in CHO cells (pAKKO-rTGR23-5); also called rTGR23-5
T2 sequence: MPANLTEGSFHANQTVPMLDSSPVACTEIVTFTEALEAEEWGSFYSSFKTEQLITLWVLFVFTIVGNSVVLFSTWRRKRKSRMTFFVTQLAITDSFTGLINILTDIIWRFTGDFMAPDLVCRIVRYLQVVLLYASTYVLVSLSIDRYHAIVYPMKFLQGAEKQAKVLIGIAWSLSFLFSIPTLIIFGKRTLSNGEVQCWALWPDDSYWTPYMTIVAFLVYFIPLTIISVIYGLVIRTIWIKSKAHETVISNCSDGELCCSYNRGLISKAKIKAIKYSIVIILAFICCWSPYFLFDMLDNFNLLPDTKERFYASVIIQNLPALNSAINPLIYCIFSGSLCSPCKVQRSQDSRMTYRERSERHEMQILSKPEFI
Experimental: (§1) The membrane fractions of rat TGR23-1 expressing CHO cells and rat TGR23-5 expressing CHO cells, which were prepared as described above, were suspended in binding buffer (20 mM Tris-HCl (pH7.4), 5 mM EDTA, 0.1% BSA, 0.5 mM PMSF, 0.1 μg/ml of pepstatin, 20 μg/ml of leupeptine and 4 μg/ml of E-64). The concentrtion was adjusted to 10 μg/ml. The solutiion was used as a membrane fraction solution for binding saturation. Total binding of [Nle¹⁰, ¹²⁵I-Tyr¹⁵] human TGR23-2 ligand (1-20), which was prepared by the method described in Example 26, to the membrane fractions, was obtained by the following method.
(§2) To 200 μl of the membrane fraction solution for binding saturation, 2 μl of dimethylsulfoxide (DMSO) and 2 μl of [Nle¹⁰, ¹²⁵I-Tyr¹⁵] human TGR23-2 ligand (1-20) having various concentrations, were added, and then the mixture was incubated at 25° C. for 90 minutes. […] The radioactivity of [Nle¹⁰, ¹²⁵I-Tyr¹⁵] human TGR23-2 ligand (1-20) trapped on the glass filter was measured by counter, and the obtained value was determined as the total binding. […] A specific binding at a given concentration of [Nle¹⁰, ¹²⁵I-Tyr¹⁵] human TGR23-2 ligand (1-20) is calculated by subtracting the non-specific binding from the total binding at the same concentration. […]

[3] = target: T3, human-derived G protein-coupled receptor protein TGR23-1 (human TGR23-1) (human, UniProt Q6W5P4 1-371); test: radioligand filter binding on the membrane fraction of TGR23-1 expressing CHO cells
T3 construct: Expressed in CHO dhfr- cells (pAKKO-TGR23-1)
T3 sequence: T1 chain with I107N, R344Q
Source text: (§3) The Receptor Binding Assay Using [Nle¹⁰, ¹²⁵I-Tyr¹⁵] human TGR3-2 ligand (1-20) Using using [Nle¹⁰, ¹²⁵I-Tyr¹⁵] human TGR23-2 ligand (1-20) prepared by the method described in Example 26, and a cell membrane fraction prepared from TGR23-2 expressing CHO cells as described in Example 24 and a cell membrane fraction prepared from TGR23-1 expressing CHO cells by the similar method to that described in Example 24 using TGR23-1 expressing CHO cells instead of TGR23-2 expressing CHO cells, a receptor binding assay was carried out as follows.
(§4) Cell membrane fraction prepared from TGR23-1 expressing CHO cells and TGR23-2 expressing CHO cells was diluted to various concentration with assay buffer (20 mM Tris-HCl, 5 mM EDTA, 0.1% BSA, 0.5 mM PMSF, 1 μg/ml Pepstatin, 4 μg/ml E-64, 20 μg/ml Leupeptin, pH7.4), and 200 μl each of the diluent was dispensed into polypropilene test tube (Falcon 2053). In order to determine an amount of maximum binding, 2 μl of DMSO and 2 μl of 10 nM [Nle¹⁰, ¹²⁵I-Tyr¹⁵] human TGR23-2 ligand (1-20) were added to the membrane fraction solution. […] After filtration, a radioactivity remaining on the filter was counted using γ-counter, and an amount of specific binding was estimated by subtracting an amount of non-specific binding from an amount of maximum binding. […]

[4] = target: T1, human-derived G protein-coupled …; test: radioligand filter binding on the membrane fraction of TGR23-2 expressing CHO cells
Source text: as §3, §4

[5] = target: T4, rat-derived G protein-coupled receptor protein TGR23-1 (rat TGR23-1) (rat, UniProt P0C0L6 1-372); test: saturation binding with Scatchard analysis on the membrane fraction of rat TGR23-1 expressing CHO cells; row head 'Binding Constant'; text gives dissociation constant 141±8.71 (pM)
T4 construct: Expressed in CHO cells (pAKKO-rTGR23-1); also called rTGR23-1
T4 sequence: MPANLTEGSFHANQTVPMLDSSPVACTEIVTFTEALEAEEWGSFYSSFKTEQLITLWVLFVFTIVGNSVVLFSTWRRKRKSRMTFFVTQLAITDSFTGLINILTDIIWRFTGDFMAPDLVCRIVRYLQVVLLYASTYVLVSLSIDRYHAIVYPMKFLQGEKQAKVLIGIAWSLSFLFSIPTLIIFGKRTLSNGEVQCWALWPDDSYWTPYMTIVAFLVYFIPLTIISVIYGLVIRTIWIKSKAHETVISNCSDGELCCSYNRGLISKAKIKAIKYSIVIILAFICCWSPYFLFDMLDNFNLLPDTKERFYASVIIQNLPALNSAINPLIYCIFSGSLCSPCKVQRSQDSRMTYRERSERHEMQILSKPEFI
Experimental: as §1, §2

[6] = target: T4, rat-derived G protein-coupled receptor …; test: cell-based or functional assay
[7] = target: T2, rat-derived G protein-coupled receptor …; test: cell-based or functional assay

Binder: SFRNGVGTG[Nle]KKTSY(125I)QRAKS [[Nle^10, ^125I-Tyr^15] human TGR23-2 ligand (1-20)]
Kd [2]: 0.125 nM
binding result [3]: binds
binding result [4]: binds
Kd [5]: 0.141 nM

Binder: SFRNGVGTGMKKTSFQRAKS (also called human TGR23 ligand (1-20)) [human TGR23-2 ligand (1-20)]
IC50 [1]: 0.105 nM

Further lines, results first:

IC50 [1]: 0.0245 nM
Binder: SFRNGVGSGAKKTSFRRAKQ [mouse TGR23-2 ligand (1-20)]

Intracellular Ca increasing activity (EC50) [6]: 0.19 nM
Intracellular Ca increasing activity (EC50) [7]: 14 nM
IC50 [1]: 0.0928 nM
Binder: SFRNGVGSGVKKTSFRRA [rat TGR23-2 ligand (1-18)]
